These results are taken from article PMC5778462.

Read-outs that look alike come from different tables or passages of the source.

Assay in all cases: EMSA
One data set concerns the target T1, MAZ (UniProt P56270).
T1 sequence: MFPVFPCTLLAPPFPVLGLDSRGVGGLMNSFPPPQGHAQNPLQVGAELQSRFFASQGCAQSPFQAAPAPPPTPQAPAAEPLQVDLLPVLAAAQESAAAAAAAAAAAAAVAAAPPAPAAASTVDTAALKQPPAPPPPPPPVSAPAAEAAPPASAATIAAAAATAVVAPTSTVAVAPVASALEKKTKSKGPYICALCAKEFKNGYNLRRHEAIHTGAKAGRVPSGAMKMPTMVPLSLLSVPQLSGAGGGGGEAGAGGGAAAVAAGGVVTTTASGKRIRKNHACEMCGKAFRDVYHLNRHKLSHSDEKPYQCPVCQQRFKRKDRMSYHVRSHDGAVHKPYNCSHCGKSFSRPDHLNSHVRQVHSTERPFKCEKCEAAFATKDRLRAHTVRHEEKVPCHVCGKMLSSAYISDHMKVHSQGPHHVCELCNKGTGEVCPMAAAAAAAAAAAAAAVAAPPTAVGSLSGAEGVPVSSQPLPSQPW

The target in data set [1] is T2, OGG1 (hOGG1) (UniProt O15527 1-345).
T2 sequence (O15527 whole entry): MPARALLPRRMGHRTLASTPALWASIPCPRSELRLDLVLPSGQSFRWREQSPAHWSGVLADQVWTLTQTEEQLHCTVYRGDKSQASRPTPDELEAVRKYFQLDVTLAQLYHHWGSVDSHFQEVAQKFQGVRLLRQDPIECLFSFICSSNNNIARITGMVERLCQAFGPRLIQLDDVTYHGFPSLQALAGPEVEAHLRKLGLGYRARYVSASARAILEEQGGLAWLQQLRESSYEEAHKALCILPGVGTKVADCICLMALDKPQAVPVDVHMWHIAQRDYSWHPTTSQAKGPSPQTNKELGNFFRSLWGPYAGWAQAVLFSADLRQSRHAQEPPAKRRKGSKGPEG
Data set [2] deals with T2, OGG1 (hOGG1). This is another data set of the same source.

As to “AGGGCGGTGTGGGAAGAGGGAAGAGGGGGAGG [32R G4]”, in the data set with MAZ, the binding signal stood at 1 reference.

Turning to “AGGGCGGTGTGGGAAGAGGGAAGAGGGGGAGG [95 G4]”, in the data set with MAZ (8-oxoG at G16), the binding signal (fold vs 32R G4) amounted to 5.

In turn, “AGGGCGGTGTGGGAAGAGGGAAGAGGGGGAGG [96 G4]” returned a binding signal (fold vs 32R G4) with MAZ (8-oxoG in 11-nt loop (Table 1: one; text: two; positions only in figure)) of 5.

“AGGGCGGTGTGGGAAGAGGGAAGAGGGGGAGG [97 G4]”: the binding signal (fold vs 32R G4) in the data set with MAZ (8-oxoG at G16 and G23) turned out to be 5.

Turning to AGGGCGGTGTGGGAAGAGGGAAGAGGGGGAGG (structured_DNA) [32R G4], the binding result in the data set with OGG1 (hOGG1) [1] was “binds”.

With AGGGCGGTGTGGGAAGAGGGAAGAGGGGGAGG (structured_DNA, one 8-oxoG in G-run III (exact position only in figure)) [93 G4], the binding result with OGG1 (hOGG1) [2] is recorded as “binds”.

As to AGGGCGGTGTGGGAAGAGGGAAGAGGGGGAGG (structured_DNA, two 8-oxoG in G-tetrad runs (exact positions only in figure)) [94 G4], the binding result in the data set with OGG1 (hOGG1) [2] was “binds”.

Take AGGGCGGTGTGGGAAGAGGGAAGAGGGGGAGG (structured_DNA, 8-oxoG at G6) [92 G4]: the binding result with OGG1 (hOGG1) [2] is recorded as “binds”.
